# Data from US20260210971A1 (Pfizer, published 2026).
# Values joined by “and” are separate entries in the source; they are usually repeats but may differ in a detail not shown here. Equal entries are not always repeated.
# T1: recombinant soluble human TL1A (human, UniProt O95150 71-251)
# T1 sequence: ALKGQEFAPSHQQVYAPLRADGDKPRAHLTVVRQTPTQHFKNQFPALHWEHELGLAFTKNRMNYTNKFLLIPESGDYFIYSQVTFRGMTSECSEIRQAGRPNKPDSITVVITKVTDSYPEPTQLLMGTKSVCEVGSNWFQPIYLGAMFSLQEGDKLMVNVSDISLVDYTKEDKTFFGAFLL
# T2: endogenous TL1A of stimulated human peripheral blood (human, UniProt O95150 72-251, limits assumed)
# T2 sequence (looked up): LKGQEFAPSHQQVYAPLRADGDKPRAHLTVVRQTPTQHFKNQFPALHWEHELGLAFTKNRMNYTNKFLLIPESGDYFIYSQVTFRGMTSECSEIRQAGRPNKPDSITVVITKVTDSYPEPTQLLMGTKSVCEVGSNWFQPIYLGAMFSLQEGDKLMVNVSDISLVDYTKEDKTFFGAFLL
# T3: endogenous TL1A of stimulated cynomolgus monkey peripheral blood (cynomolgus monkey, UniProt G7PRK8 72-251)
# T3 sequence: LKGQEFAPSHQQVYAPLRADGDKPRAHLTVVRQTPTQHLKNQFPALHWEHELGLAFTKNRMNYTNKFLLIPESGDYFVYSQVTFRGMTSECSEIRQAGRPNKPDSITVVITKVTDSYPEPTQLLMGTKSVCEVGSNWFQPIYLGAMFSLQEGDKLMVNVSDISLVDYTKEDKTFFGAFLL
# T4: human TNF-β (human, UniProt P01374 35-205)
# T4 construct: The source sentence prints 'Human TNF-from Peprotech'
# T4 sequence (looked up): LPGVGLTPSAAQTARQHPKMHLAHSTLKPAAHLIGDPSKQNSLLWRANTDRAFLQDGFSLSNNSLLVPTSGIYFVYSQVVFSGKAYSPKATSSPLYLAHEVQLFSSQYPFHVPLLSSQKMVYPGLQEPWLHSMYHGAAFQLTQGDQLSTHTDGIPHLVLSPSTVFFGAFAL
# T5: recombinant soluble cynomolgus monkey TL1A (cynomolgus monkey, UniProt O95150 72-251 (human entry))
# T5 construct: also called cyno rsTL1A; cyno TL1A
# T5 chain: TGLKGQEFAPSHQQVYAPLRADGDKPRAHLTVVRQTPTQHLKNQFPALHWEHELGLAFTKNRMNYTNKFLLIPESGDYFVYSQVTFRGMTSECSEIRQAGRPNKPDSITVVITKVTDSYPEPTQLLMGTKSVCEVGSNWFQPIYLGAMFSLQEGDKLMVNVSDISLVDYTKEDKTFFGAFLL
# T6: recombinant soluble murine TL1A (mouse, UniProt Q5UBV8 75-252)
# T6 construct: also called murine rsTL1A; mouse TL1A
# T6 chain: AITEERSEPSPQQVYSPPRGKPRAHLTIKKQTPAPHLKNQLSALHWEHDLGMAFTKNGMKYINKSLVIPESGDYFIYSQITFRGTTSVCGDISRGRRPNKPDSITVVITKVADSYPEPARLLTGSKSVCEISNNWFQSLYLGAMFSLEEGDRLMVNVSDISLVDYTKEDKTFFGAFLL
# T7: recombinant soluble rabbit TL1A (rabbit)
# T7 construct: also called rabbit rsTL1A
# T7 chain: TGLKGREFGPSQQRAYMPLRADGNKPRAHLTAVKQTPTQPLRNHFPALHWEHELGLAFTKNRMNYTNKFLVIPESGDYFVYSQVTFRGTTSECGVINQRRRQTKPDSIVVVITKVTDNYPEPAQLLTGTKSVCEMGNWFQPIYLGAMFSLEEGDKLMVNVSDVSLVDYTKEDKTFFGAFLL
# B1: 1D1 1.31 (antibody, human IgG1, kappa, V domains shown)
# VH: QVQLVQSGAEVKKPGASVKVSCKASGYDFTYYGISWVRQAPGQGLEWMGWISTYNGNTHYARMLQGRVTMTTDTSTRTAYMELRSLRSDDTAVYYCARENYYGSGAYRGGMDVWGQGTTVTVSS
# VL: EIVLTQSPATLSLSPGERATLSCRASQSVSSYLAWYQQKPGQAPRLLIYDASNRATGIPARFSGSGSGTDFTLTISSLEPEDFAVYYCQQRSNWPWTFGQGTKVEIKR
# notes: Full length human IgG1 with effector function-null mutations in the Fc, produced in CHO cells; Used biotinylated for staining of monocytes
# Legend:
# [1] = molecular target: T1, recombinant soluble human TL1A; assay: cell-based or functional assay
# [2] = molecular target: T2, endogenous TL1A of stimulated human …; assay: cell-based or functional assay
# [3] = molecular target: T3, endogenous TL1A of stimulated …; assay: cell-based or functional assay
# [4] = molecular target: T1, recombinant soluble human TL1A; assay: cell-based or functional assay; remark: listed apart in the source
# [5] = molecular target: T2, endogenous TL1A of stimulated human …; assay: cell-based or functional assay; remark: listed apart in the source
# human TNF-β = molecular target: T4, human TNF-β; assay: plate ELISA, cytokine coated
# Method: (§1) The first 6 rows of each plate were coated with the test article cytokine, and the last two rows were coated with TL1A as a positive control. Rows 1 and 2 were duplicate rows where the test article cytokine was tested for binding to increasing concentrations of its corresponding anti-cytokine positive control antibody. […] The experiment for each cytokine was repeated three times.
# (§2) Plates were incubated overnight at 4° C. After washing the plates three times (3×) with 300 μL PBST using a plate washer (model ELx405; BioTek), plates were blocked by incubating for 1 hour at room temperature with 300 μL of blocking buffer (PBST+0.5% BSA) in each well. […] Plates were then washed 5 times with PBST using the plate washer.
# [6] = molecular target: T1, recombinant soluble human TL1A; assay: KinExA, equilibrium in solution
# Method: (§3) This assay involves pre-incubating antibody: antigen mixtures in solution long enough to reach equilibrium before measuring the level of unbound antibody using a solid phase component. […] Beads were blocked for 1 hour with PBS plus 10 mg/ml bovine serum albumin (bovine serum albumin, Sigma) at room temperature before being diluted up to a total of 27 ml in PBS. […] For each titration series, a buffer sample and a sample of antibody alone were included. Each antibody: TL1A mixture was tumbled at room temperature for at least six hours to reach equilibrium and then each mixture was injected over the solid phase of TL1A-coated beads in the instrument flow cell. […] Beads were replenished between each sample. Binding signals of detected free antibody were converted to percentage of free, unbound antibody as measured by the antibody only sample and plotted versus each concentration of TL1A. For each antibody, the KD and ABC controlled curves were fit simultaneously using n-Curve Analysis software v3.1.4 to fit the curves to the ‘affinity, unknown ligand’ model and measure an equilibrium KD.
# (§4) Solution-based kinetic exclusion assays (KinExA) were carried out as an orthogonal technique to measure equilibrium KD values.
# [7] = molecular target: T5, recombinant soluble cynomolgus monkey …; assay: KinExA, equilibrium in solution
# Method: as §3, §4
# [8] = molecular target: T6, recombinant soluble murine TL1A; assay: KinExA, equilibrium in solution
# Method: as §3, §4
# [9] = molecular target: T1, recombinant soluble human TL1A; assay: plate ELISA, TL1A coated, antibody titrated
# [10] = molecular target: T6, recombinant soluble murine TL1A; assay: SPR, IgG captured on anti-hIgG, TL1A injected;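 also: biacore measurement on a carboxymethylated dextran chip, double-referenced against a control surface and buffer, rates fitted to a one-to-one binding model, KD from koff over kon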
# From the text: (§5) The antibodies were captured via directly immobilized anti-human IgG (GE Healthcare) onto a carboxymethylated dextran sensor chip surface (CM5) using a Biacore T100 or T200 instrument. Anti-human IgG was immobilized through amine coupling to densities of approximately 4,000-13,000 response units (RU). […] At the end of each cycle, the entire anti-hIgG surface was regenerated by a 30-second pulse of 3M MgCl₂ followed by two consecutive 15-second pulses of PBS-NET. […] All injections were performed at 25° C. at a collection rate of 10 Hz. All sensorgrams were double referenced by using both a control surface and buffer injections. Rate constants were determined by fitting the data to a 1:1 model in Biacore T100, T200 evaluation software v1.0, or BIAevaluation software v4.1.1 and the equation KD=Kd/kₐ.
# (§6) At the highest cytokine concentrations, the dissociation phase was sometimes extended to 60 minutes to achieve at least a 5% decrease in binding signal.
# [11] = molecular target: T7, recombinant soluble rabbit TL1A; assay: SPR, IgG captured on anti-hIgG, TL1A injected
# From the text: as §5, §6
# [12] = molecular target: T1, recombinant soluble human TL1A; assay: plate ELISA, TL1A coated, antibody titrated; plate of TNF β
# Method: as §1, §2
# [13] = molecular target: T1, recombinant soluble human TL1A; assay: SPR, IgG captured on anti-hIgG, TL1A injected; off rate too slow to measure
# [14] = molecular target: T1, recombinant soluble human TL1A; assay: plate ELISA, TL1A coated at 1 µg/mL, detection with anti-human IgG HRP
# Method: as §1, §2
# [15] = molecular target: T1, recombinant soluble human TL1A; assay: flow cytometry, inhibition of the binding of 10 µg/mL biotinylated TL1A to DR3-transfected HEK293 cells
# [16] = molecular target: T2, endogenous TL1A of stimulated human …; assay: MSD ligand-binding assay of 1D1 1.31-free soluble TL1A in plasma of human whole blood stimulated 24 h with immune complex + IL-12/IL-18
# Method: After 24 hours of culture at 37° C., 100 μL of 5% bovine serum albumin in PBS were added and mixed well with the 200 μL of blood cultures to dilute plasma (dilution factor: 1.5). […] IFNγ was measured using the MSD human IFNγ kit (Catalog No. K151AEB-1) following the manufacturer's instructions. […] The following day, plates were washed three times with 150 μL per well of 0.1% Tween 20 in PBS, followed with 150 μL per well of blocking solution (5% bovine serum albumin in PBS), then the plates were incubated at room temperature for 1 hour with orbital shaking (1500 rpm). After the plates were washed as mentioned above, diluted plasma samples were added and incubated at 4° C. overnight. […] TL1A standard curves were generated using recombinant human soluble TL1A. Plates were read following the manufacturer's procedure, standard curve and plasma concentration of the cytokine were calculated with the MSD software.
# [17] = molecular target: T3, endogenous TL1A of stimulated …; assay: MSD ligand-binding assay of 1D1 1.31-free sTL1A in plasma of stimulated cynomolgus blood; upper end over the monkeys; upper end of range over 6 monkeys
# Method: Cynomolgus monkey peripheral blood treated with 1 ng/ml recombinant human IL-12 and 10 ng/ml recombinant human IL-18 was stimulated by immune complex coated plates for 24 hours at 37° C. […] Plasma was prepared from these samples and IFNγ was measured in the plasma samples by a quantitative immune-ligand binding assay using a Mesoscale (MSD) kit. […] Cynomolgus monkey peripheral blood treated with 1 ng/ml recombinant human IL-12 and 10 ng/ml recombinant human IL-18 was stimulated by immune complex coated plates for 24 hours at 37° C.
# For IC and IL-12 and IL-18 stimulation, cynomolgus monkey blood was collected in sodium heparin coated tubes and used within one hour after the blood draw. Human IL-12 (1 ng/mL final concentration) and human IL-18 (10 ng/ml final concentration) were mixed in with blood prior to addition of 95 μL of the blood/IL-12/IL-18 mixture to each well of the IC coated plates.
binder,measurement,setting,value
B1,"inhibition of NFκB activation by 150 pM TL1A in TF-1-NFκB-luciferase cells, IC50",[1],95 pM
same,"inhibition of caspase activation by 87 pM TL1A in TF-1 cells, IC50",[1],69 pM
same,"inhibition of IFNγ secretion in stimulated human whole blood, IC50",[2],0.277 nM
same,"inhibition of IFNγ secretion in stimulated cynomolgus whole blood, IC50",[3],0.036 nM
same,"Caspase Assay, average IC50",[4],0.106 nM
same,"NFkB Assay, average IC50",[4],0.15 nM
same,"HWB Assay, average IC50",[5],0.00167 nM
same,binding result,human TNF-β,no binding (tested: 25 µg/mL highest antibody concentration)
same,Kd,[6],0.00138 nM and 0.0036 nM
same,Kd,[7],0.0035 nM
same,Kd,[8],0.0953 nM
same,EC50,[9],8.4 µg/mL
same,Kd,[10],1.06 nM
same,koff,[10],0.00027 s⁻¹
same,kon,[10],270000 M⁻¹ s⁻¹
same,t1/2,[10],0.701 h
same,Kd,[11],0.361 nM
same,koff,[11],0.00011 s⁻¹
same,kon,[11],320000 M⁻¹ s⁻¹
same,t1/2,[11],1.69 h
same,EC50,[12],0.0023 ng/mL
same,Kd,[13],< 0.1 nM
same,EC50 (read off the curve),[14],~0.008 µg/mL
same,IC50,[15],18.7 µg/mL
same,IC50 (read off the curve),[16],~0.005 nM
same,IC50,[17],0.09 nM
